B1: PhaC2 (PHA polymerase 2), granule-bound (Ectopseudomonas oleovorans) (protein)
chain: MKDKPAKGTPTLPATSMNVQNAILGLRGRDLISTLRNVSRQSLRHPLHTAHHLLALGGQLGRVILGDTPLQPNPRDPRFSDPTWSQNPFYRRGLQAYLAWQKQTRLWIEESHLDDDDRARAHFLFNLINDALAPSNSLLNPLAVKELFNSGGQSLVRGVAHLLDDLRHNDGLPRQVDERAFEVGGNLAATAGAVVFRNELLELIQYKPMSEKQHARPLLVVPPQINKFYIFDLSSTNSFVQYMLKNGLQVFMVSWRNPDPRHREWGLSSYVQALEEALNACRSISGNRDPNLMGACAGGLTMAALQGHLQAKHQLRRVRSATYLVSLLDSKFESPASLFADEQTIEAAKRRSYQRGVLDGAEVARIFAWMRPNDLIWNYWVNNYLLGKTPPAFDILYWNADSTRLPAALHGDLLDFFKLNPLTHPAGLEVCGTPIDLQKVELDSFTVAGSNDHITPWDAVYRSALLLGGDRRFVLANSGHIQSIINPPGNPKAYYLANPKLSSDPRAWLHDAKRSEGSWWPLWLEWITARSGPLKAPRSELGNATYPPLGPAPGTYVLTR
notes: overexpressed from pGEc404 in PHA-negative P. putida GPp104; assayed on isolated PHA granules (other granule proteins present)
B2: PhaC1 (PHA polymerase 1), granule-bound (Ectopseudomonas oleovorans) (protein)
chain: MSNKNNDELQRQASENTLGLNPVIGIRRKDLLSSARTVLRQAVRQPLHSAKHVAHFGLELKNVLLGKSSLAPESDDRRFNDPAWSNNPLYRRYLQTYLAWRKELQDWIGNSDLSPQDISRGQFVINLMTEAMAPTNTLSNPAAVKRFFETGGKSLLDGLSNLAKDLVNNGGMPSQVNMDAFEVGKNLGTSEGAVVYRNDVLELIQYKPITEQVHARPLLVVPPQINKFYVFDLSPEKSLARYCLRSQQQTFIISWRNPTKAQREWGLSTYIDALKEAVDAVLAITGSKDLNMLGACSGGITCTALVGHYAALGENKVNALTLLVSVLDTTMDNQVALFVDEQTLEAAKRHSYQAGVLEGSEMAKVFAWMRPNDLIWNYWVNNYLLGNEPPVFDILFWNNDTTRLPAAFHGDLIEMFKSNPLTRPDALEVCGTPIDLKQVKCDIYSLAGTNDHITPWQSCYRSAHLFGGKIEFVLSNSGHIQSILNPPGNPKARFMTGADRPGDPVAWQENATKHADSWWLHWQSWLGERAGELEKAPTRLGNRAYAAGEASPGTYVHER
notes: overexpressed from pGEc405 in PHA-negative P. putida GPp104; assayed on isolated PHA granules (other granule proteins present)

Substrate: CCCCC[C@@H](O)CC(=O)SCCNC(=O)CCNC(=O)[C@H](O)C(C)(C)COP(=O)(O)OP(=O)(O)OC[C@H]1O[C@@H](n2cnc3c(N)ncnc32)[C@H](O)[C@@H]1OP(=O)(O)O
Test: cells, lysate or membranes
Format: biochemical, Ectopseudomonas oleovorans
Settings: granule-bound enzyme (isolated PHA granules), 100 mM Tris-HCl pH 8, 1 mg/ml BSA, 0.5 mM MgCl2, substrate 0.0375-0.25 mM

Row | Protein | Km [µM]
1 | B1 | 37 ± 10
2 | B2 | 125 ± 35
